Reference: paper PMC6921004, “Structural Characterization of Full-Length Human Dehydrodolichyl Diphosphate Synthase Using an Integrative Computational and Experimental Approach” (Biomolecules, 2019)

B1: human dehydrodolichyl diphosphate synthase (DHDDS), full-length homodimer (Homo sapiens) (protein)
chain: MSWIKEGELSLWERFCANIIKAGPMPKHIAFIMDGNRRYAKKCQVERQEGHSQGFNKLAETLRWCLNLGILEVTVYAFSIENFKRSKSEVDGLMDLARQKFSRLMEEKEKLQKHGVCIRVLGDLHLLPLDLQELIAQAVQATKNYNKCFLNVCFAYTSRHEISNAVREMAWGVEQGLLDPSDISESLLDKCLYTNRSPHPDILIRTSGEVRLSDFLLWQTSHSCLVFQPVLWPEYTFWNLFEAILQFQMNHSVLQKARDMYAEERKRQQLERDQATVTEQLLREGLQASGDAQLRRTRLHKLSARREERVQGFLQALELKRADWLARLGTASA
notes: full-length; expressed in E. coli T7 express from pET-32b as thioredoxin-6xHis fusion, tag and fusion removed by TEV protease; without NgBR
B2: Dehydrodolichyl diphosphate synthase (DHDDS), full-length human (enzyme, UniProt Q86SQ9 1-333, looked up)
chain: B1 chain
notes: Dehydrodolichyl diphosphate synthase (DHDDS), human, UniProt Q86SQ9, full length; synthesized gene cloned into pET-32b between NdeI and BamHI; Expressed as a TRX fusion with a 6xHis-tag and a TEV site; the tag and the fusion were removed by TEV protease; also called hDHDDS; human DHDDS; source: E. coli T7 express, purified (TALON-Superflow, TEV cleavage, second TALON-Superflow, Superdex-200 SEC)

Key:
purified protein [1] = substrate: C=C(C)CCO[P@@](=O)(O)OP(=O)(O)O; assay: purified protein; settings: 10 μM FPP, 0.5 μM protein, labelled compound (^14C), Tris-HCl pH 7.5, 150 mM NaCl, 20 mM β-mercaptoethanol, 0.1% Triton X-100, 30 °C, homodimer without NgBR
purified protein [2] = substrate: CC(C)=CCC/C(C)=C/CC/C(C)=C/CO[P@@](=O)(O)OP(=O)(O)O; assay: purified protein; assay type: biochemical, Homo sapiens; settings: 20 μM ^14C-IPP, 0.1 μM protein, Tris-HCl pH 7.5, 150 mM NaCl, 20 mM β-mercaptoethanol, 0.1% Triton X-100, 30 °C, homodimer without NgBR
[3] = molecular target: the molecule itself; assay: SEC-MALS; Superdex-200 increase 10/300 GL; Tris-HCl pH 7.5, 150 mM NaCl, 20 mM beta-mercaptoethanol, 0.02% Triton X-100; sample 2 mg/mL, 50 uL

Protein | Km (purified protein [1]) | kcat (purified protein [1]) | Km (purified protein [2]) | kcat (purified protein [2]) | stoichiometry N [3]
B1 | 9.3 ± 2.8 µM | 0.0011 ± 0.0001 s⁻¹ | 0.45 ± 0.1 µM | 0.0011 ± 0.0001 s⁻¹ | 
B2 |  |  |  |  | 2
